From patent US20260242497A1 come the findings set out here.

Assay [1] has as its target human FcRn (human) (UniProt P55899). The experiment in a line: SPR, Biacore 8K, CM5 chip, antibody immobilised, human FcRn as analyte, pH 6.0.
For assay [2] the target is unchanged. The experiment in a line: SPR, Biacore 8K, CM5 chip, antibody immobilised, human FcRn as analyte, pH 6.0; average of multiple experiments.

Chain of human FcRn (human) (P55899 24-297 limits assumed, chain 1 of 2): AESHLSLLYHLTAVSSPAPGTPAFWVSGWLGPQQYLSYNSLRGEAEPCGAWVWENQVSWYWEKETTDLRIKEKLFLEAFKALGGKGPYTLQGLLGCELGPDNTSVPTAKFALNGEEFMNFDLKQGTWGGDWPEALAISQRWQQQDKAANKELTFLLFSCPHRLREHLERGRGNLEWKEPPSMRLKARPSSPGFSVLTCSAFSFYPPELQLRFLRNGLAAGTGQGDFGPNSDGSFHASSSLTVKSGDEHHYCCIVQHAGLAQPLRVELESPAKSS
Chain of human FcRn (human) (beta, as listed by the source limits assumed, chain 2 of 2): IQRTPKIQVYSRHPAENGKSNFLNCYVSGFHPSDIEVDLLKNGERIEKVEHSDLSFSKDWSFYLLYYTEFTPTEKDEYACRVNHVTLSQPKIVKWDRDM

A word on the Kd: it is the concentration at which binding is half-saturated. A lower Kd goes with higher affinity. For the substance APG-777 (Apogee) (antibody), in the assay with human FcRn (human) [1], the Fold Increase (FI) relative to Rituximab came to 10.5 fold and the Kd amounted to 202 nM.
AVTX-009 (Avalo) (antibody) displayed a Kd with human FcRn (human) [1] of 2190 nM. That is a single-digit micromolar value.
CALY-002 (Calypso/Novartis) (antibody): in the assay with human FcRn (human) [1], the Fold Increase (FI) relative to Rituximab stood at 1.1 fold and the Kd turned out to be 1950 nM.
Substance Rituximab (antibody) yielded a Kd with human FcRn (human) [2] of 2130 nM. This counts as single-digit micromolar.
